± gives the uncertainty stated by the source.

A short description of this series: self-splicing fitness, log relative to wild type (ln ratio); higher = more splicing; Tetrahymena group I intron in knt gene, E. coli kanamycin selection, DiMSum; sequences stand for … in CUCUCU…GGAGGGAAAAGUUAUCAGGCAUGCACCUGGUAGCUAGUCUUUAAACCAAUAGAUUGCAUCGGUUUAAAAGGCAAGACCGUCAAAUUGCGGGAAAGGGGUCAACAGCCGUUCAGUACCAAGUCUCAGGGGAAACUUUGAGAUGGCCUUGCAAAGGGUAUGGUAAUAAGCUGACGGACAUGGUCCUAACCACGCAGCCAAGUCCUAAGUCAACAGAUCUUCUGUUGAUAUGGAUGCAGUUCACAGACUAAAUGUCGGUCGGGGAAGAUGUAUUCUUCUCAUAAGAUAUAGUCGGACCUCUCCUUAAUGGGAGCUAGCGGAUGAAGUGAUGCAACACUGGAGCCGCUGGGAACUAAUUUGUAUGCGAAAGUAUAUUGAUUAGUUUUGGAGUACUCGUGGUCG
A digest of the protocol: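 DiMSum derived fitness as the error-weighted combination of fold changes across replicates, kanamycin versus no kanamycin, normalised to wild type. E. coli BL21(DE3) held the library, which randomised all eight P1ex-region intron nucleotides within the knt kanamycin-resistance gene on pET-22b(+). Six replicate transformations grew overnight at 37°C or 30°C on LB agar with or without 25 μg/mL kanamycin, also containing 100 μg/mL carbenicillin, 50 μM IPTG and 0.2% rhamnose, and pooled colonies were amplicon-sequenced on an Illumina HiSeq 2500.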

For the sequence CACAAGCAAUAUUACGGGAA, the “self-splicing fitness (ln)” value (30 °C) is -3.21 ± 0.16 and the “self-splicing fitness (ln)” value (37 °C) was -2.79 ± 0.17.
Consider CCCUAGCAAUAUUACGCUGC, for which, where the note is “30 °C”, the “self-splicing fitness (ln)” value was -3.47 ± 0.32.
For the sequence AGUGAGCAAUAUUACGAGCA, the “self-splicing fitness (ln)” value is, setting by setting: (30 °C) -0.561 ± 0.11; (37 °C) -0.436 ± 0.11.
For the sequence UGAUAGCAAUAUUACGAUUC, the “self-splicing fitness (ln)” value is -2.33 ± 0.24 (30 °C) and -2.41 ± 0.49 (37 °C).
For AACAAGCAAUAUUACGACCU the same measures were 0.219 ± 0.086 and 0.125 ± 0.1.
On to GGUGAGCAAUAUUACGUUCU, for which the “self-splicing fitness (ln)” value (30 °C) was 0.501 ± 0.28 and the “self-splicing fitness (ln)” value (37 °C) is -1.16 ± 0.27.
For GUGUAGCAAUAUUACGCUAA the same measures were -1.77 ± 0.42 and -1.01 ± 0.3.
The like results for AUGCAGCAAUAUUACGUGCU were, in that order, -2.52 ± 0.1 and -1.9 ± 0.098.
Take GACCAGCAAUAUUACGCGAU: the “self-splicing fitness (ln)” value runs as follows: (30 °C) -2.28 ± 0.11; (37 °C) -1.17 ± 0.093.
Take CCGGAGCAAUAUUACGGGUC: the “self-splicing fitness (ln)” value is -3.5 ± 0.27 (30 °C) and -2.77 ± 0.35 (37 °C).
For AAGCAGCAAUAUUACGGAGA, the “self-splicing fitness (ln)” value (30 °C) is -2.7 ± 0.13 and the “self-splicing fitness (ln)” value (37 °C) was -1.44 ± 0.13.
Consider UGAGAGCAAUAUUACGGUUG, for which the “self-splicing fitness (ln)” value is -2.6 ± 0.12 (30 °C) and -2.64 ± 0.19 (37 °C).
On to CAGAAGCAAUAUUACGCCUC, for which the “self-splicing fitness (ln)” value (37 °C) is -0.543 ± 0.28.
GGCGAGCAAUAUUACGCCCA: the “self-splicing fitness (ln)” value by setting is: (30 °C) -2.15 ± 0.42; (37 °C) -0.478 ± 0.33.
As for GGCGAGCAAUAUUACGUUAC, the “self-splicing fitness (ln)” value by setting is: (30 °C) -3.24 ± 0.33; (37 °C) -2.03 ± 0.32.
For UGUCAGCAAUAUUACGGAUA the same measures were -1.37 ± 0.1 and -0.339 ± 0.12.
The like results for UUGAAGCAAUAUUACGAAAU were, in that order, -3.51 ± 0.13 and -0.963 ± 0.09.
In the case of CACCAGCAAUAUUACGGUGU, the “self-splicing fitness (ln)” value (30 °C) was -3.39 ± 0.11 and the “self-splicing fitness (ln)” value (37 °C) is -1.82 ± 0.12.
With UGUGAGCAAUAUUACGUAUU, the “self-splicing fitness (ln)” value reads like this: (30 °C) -3.12 ± 0.16; (37 °C) -2.63 ± 0.26.
For the sequence AUGAAGCAAUAUUACGCUCG, the “self-splicing fitness (ln)” value is, setting by setting: (30 °C) -0.0634 ± 0.1; (37 °C) 0.31 ± 0.16.
For CGUGAGCAAUAUUACGCCGG the same measures were -2.32 ± 0.24 and -2.58 ± 0.39.
Regarding CACGAGCAAUAUUACGAGGG, the “self-splicing fitness (ln)” value reads like this: (30 °C) -3.64 ± 0.25; (37 °C) -3.25 ± 0.33.
In the case of AAGAAGCAAUAUUACGUAGA, the “self-splicing fitness (ln)” value runs as follows: (30 °C) -2.64 ± 0.13; (37 °C) -1.01 ± 0.11.
For ACCGAGCAAUAUUACGAAGU the same measures were -1.93 ± 0.16 and -1.68 ± 0.22.
As to ACCGAGCAAUAUUACGCAAU, the “self-splicing fitness (ln)” value runs as follows: (30 °C) -2.71 ± 0.16; (37 °C) -2.36 ± 0.32.
GCUCAGCAAUAUUACGGGCA: the “self-splicing fitness (ln)” value runs as follows: (30 °C) -1.76 ± 0.17; (37 °C) -0.69 ± 0.17.
The like results for UAACAGCAAUAUUACGUUAG were, in that order, -2.24 ± 0.087 and -0.961 ± 0.086.
For the sequence UAAUAGCAAUAUUACGAGCA, the “self-splicing fitness (ln)” value (30 °C) was -1.64 ± 0.16 and the “self-splicing fitness (ln)” value (37 °C) was -1.21 ± 0.16.
With UGUUAGCAAUAUUACGCCGC, for the setting “30 °C”, the “self-splicing fitness (ln)” value is -3.34 ± 0.45.
In the case of AACCAGCAAUAUUACGCCUA, the “self-splicing fitness (ln)” value (30 °C) was -0.252 ± 0.076 and the “self-splicing fitness (ln)” value (37 °C) is -0.557 ± 0.086.
For CUGCAGCAAUAUUACGGCCU the same measures were -3.23 ± 0.17 and -1.56 ± 0.15.
For CCGGAGCAAUAUUACGCGGU the same measures were -3.21 ± 0.16 and -2.96 ± 0.23.
For UAAGAGCAAUAUUACGCCUG the same measures were -2.17 ± 0.15 and -0.85 ± 0.2.
Consider CGGCAGCAAUAUUACGACUC, for which the “self-splicing fitness (ln)” value is, setting by setting: (30 °C) -0.739 ± 0.097; (37 °C) -0.759 ± 0.1.
Regarding GACGAGCAAUAUUACGGUUU, the “self-splicing fitness (ln)” value is, setting by setting: (30 °C) -2.28 ± 0.11; (37 °C) -1.87 ± 0.14.
For the sequence UGUCAGCAAUAUUACGACUA, the “self-splicing fitness (ln)” value reads like this: (30 °C) -0.425 ± 0.073; (37 °C) 0.686 ± 0.11.
On to UGGAAGCAAUAUUACGUGAA, for which the “self-splicing fitness (ln)” value was -1.33 ± 0.096 (30 °C) and -1.65 ± 0.12 (37 °C).
For CUAAAGCAAUAUUACGCUUA, the “self-splicing fitness (ln)” value runs as follows: (30 °C) -3.75 ± 0.37; (37 °C) -2.75 ± 0.39.

The values are drawn from the supplement of paper PMC7877785.
